{"source": "paper PMC5517481", "about": "(2017)", "binders": {"B1": {"name": "R11.1.6 expressed on the surface of yeast (designed binder)", "chain": "ATVKFTHQGEEKQVDISKIKWVIRWGQYIWFKYDEDGGAKGWGYVSEKDAPKELLQMLKKR"}, "B2": {"name": "SUMO-R11.1.6 fusion protein (designed binder)", "chain": "B1 chain"}}, "key": {"His6-SUMO-K-Ras WT [1]": {"target": "T1, His6-SUMO-K-Ras WT (human, UniProt P01116-2 1-166)", "assay": "FACS; GppNHp-loaded"}, "His6-SUMO-K-Ras WT [2]": {"target": "T1, His6-SUMO-K-Ras WT", "assay": "FACS; GDP-loaded"}, "[3]": {"target": "K-Ras WT (G domain, residues 1-166) (human, UniProt P01116-2 1-166, biotinylated for BLI (site not stated))", "assay": "BLI; GppNHp-loaded"}, "[4]": {"target": "H-Ras WT (G domain, residues 1-166) (UniProt P01112 1-166, biotinylated for BLI (site not stated))", "assay": "BLI; GppNHp-loaded"}, "[5]": {"target": "N-Ras WT (G domain, residues 1-166) (UniProt P01111 1-166, biotinylated for BLI (site not stated))", "assay": "BLI; GppNHp-loaded"}}, "data": [{"binder": "B1", "values": [{"measurement": "Kd", "setting": "His6-SUMO-K-Ras WT [1]", "result": 50.3, "unit": "nM"}, {"measurement": "Kd", "setting": "His6-SUMO-K-Ras WT [2]", "result": 2.8, "unit": "nM"}]}, {"binder": "B2", "values": [{"measurement": "Kd", "setting": "[3]", "result": 41, "unit": "nM"}, {"measurement": "Kd", "setting": "[4]", "result": 10, "unit": "nM"}, {"measurement": "Kd", "setting": "[5]", "result": 7, "unit": "nM"}]}]}
